Assay results taken from patent US20220282217A1, “COMPOSITIONS AND METHODS FOR PREPARING T CELL COMPOSITIONS AND USES THEREOF” (priority 2019, published 2022).

Legend:
[1] = biological target: T1, HLA-B07.02 class I MHC molecule (prepared complex) (human); assay: displacement of radiolabeled reference peptide from class I MHC, gel filtration; 'Affinity (nM)'; details: remark: other sources report otherwise
[2] = biological target: T2, HLA-A02.01 class I MHC molecule (prepared complex) (human); assay: as above; details: remark: other sources report otherwise
[3] = biological target: T1, HLA-B07.02 class I MHC molecule …; assay: dissociation of peptide-MHC-I complex at 37 C, 125I-labelled b2m, scintillation; details: remark: other sources report otherwise
[4] = biological target: T2, HLA-A02.01 class I MHC molecule …; assay: as above; details: remark: other sources report otherwise
[5] = biological target: HLA-B07:02 class I MHC molecule (human); assay: pMHC-I dissociation at 37 C, 125I-labeled b2m, scintillation counts; details: remark: other sources report otherwise
[6] = biological target: HLA-A02:01 class I MHC molecule (human); assay: as above; details: remark: other sources report otherwise
[7] = biological target: HLA-A02:01 class I MHC molecule (human); assay: competition with a radiolabeled reference peptide for purified MHC I, gel filtration; 'Affinity (nM)'; details: remark: other sources report otherwise
HLA-A01.01 (human) [8] = assay: competition vs radiolabeled reference peptide on purified MHC I, gel filtration; details: remark: other sources report otherwise
[9] = biological target: HLA class I molecule B08.01; assay: competition with radiolabeled reference peptide on purified MHC I; details: remark: other sources report otherwise
[10] = biological target: HLA class I molecule B07.02; assay: as above; details: remark: other sources report otherwise
[11] = biological target: HLA class I molecule A02.01; assay: pMHC-I dissociation half-life, 125I-b2m; details: remark: other sources report otherwise
[12] = biological target: HLA class I molecule B08.01; assay: pMHC-I dissociation half-life, 125I-b2m; details: remark: other sources report otherwise
[13] = biological target: HLA class I molecule B07.02; assay: pMHC-I dissociation half-life, 125I-b2m; details: remark: other sources report otherwise
HLA-B08.01 (human) = assay: competition with radiolabeled reference peptide, purified MHC I
HLA-B07.02 (human) [14] = assay: pMHC-I dissociation half-life, 125I-b2m; details: remark: other sources report otherwise
HLA-B07.02 (human) [15] = assay: competition with radiolabeled reference peptide, purified MHC I; details: remark: other sources report otherwise
[16] = biological target: T3, HLA-A24.02 class I MHC molecule (prepared complex) (human); assay: displacement of radiolabeled reference peptide from class I MHC, gel filtration; 'Affinity (nM)'; details: remark: other sources report otherwise
[17] = biological target: T3, HLA-A24.02 class I MHC molecule …; assay: dissociation of peptide-MHC-I complex at 37 C, 125I-labelled b2m, scintillation; details: remark: other sources report otherwise
[18] = biological target: HLA class I molecule A02.01; assay: competition with radiolabeled reference peptide on purified MHC I; details: remark: other sources report otherwise
[19] = biological target: T4, HLA-A01.01 class I MHC molecule (prepared complex) (human); assay: displacement of radiolabeled reference peptide from class I MHC, gel filtration; 'Affinity (nM)'; details: remark: other sources report otherwise
[20] = biological target: T4, HLA-A01.01 class I MHC molecule …; assay: dissociation of peptide-MHC-I complex at 37 C, 125I-labelled b2m, scintillation; details: remark: other sources report otherwise
HLA-A03.01 (human) = assay: competition with radiolabeled reference peptide, purified MHC I; details: remark: other sources report otherwise
HLA-A02.01 (human) [21] = assay: as above; details: remark: other sources report otherwise
HLA-A01.01 (human) [22] = assay: pMHC-I dissociation half-life, 125I-b2m; details: remark: other sources report otherwise
HLA-A02.01 (human) [23] = assay: pMHC-I dissociation half-life, 125I-b2m; details: remark: other sources report otherwise
HLA-A01.01 (human) [24] = assay: competition with radiolabeled reference peptide, purified MHC I; details: remark: other sources report otherwise
HLA-A01.01 (human) [25] = assay: pMHC-I complex dissociation at 37 C, 125I-b2m, half-life; details: remark: other sources report otherwise
HLA-A02.01 (human) [26] = assay: as above; details: remark: other sources report otherwise
HLA-A02.01 (human) [27] = assay: competition vs radiolabeled reference peptide on purified MHC I, gel filtration; details: remark: other sources report otherwise
[28] = biological target: HLA class I molecule A24.02; assay: competition with radiolabeled reference peptide on purified MHC I; details: remark: other sources report otherwise
[29] = biological target: HLA class I molecule A24.02; assay: pMHC-I dissociation half-life, 125I-b2m; details: remark: other sources report otherwise
[30] = biological target: HLA-B07:02 class I MHC molecule (human); assay: competition with a radiolabeled reference peptide for purified MHC I, gel filtration; 'Affinity (nM)'; details: remark: other sources report otherwise

MQLMPFGCL
IC50 [1]: 1.59 µM | IC50 [2]: 0.116 µM | Stability (half-life (hr.)) [3]: 0 h | Stability (half-life (hr.)) [4]: 22.1 min

MANGSLLNYL
Stability (half-life (hr.)) [5]: 0 h | Stability (half-life (hr.)) [6]: 0 min | IC50 [7]: 1.01 µM

LTSTVQLIM
IC50 (HLA-A01.01 (human) [8]): 2.89 µM

YMANGSLLN
Stability (half-life (hr.)) [6]: 0 min | IC50 [7]: 4 µM

SLGNHLCPL
IC50 [9]: 0.006 µM | IC50 [10]: 2.59 µM | Stability (T1/2 (h)) [11]: 3.5 h | Stability (T1/2 (h)) [12]: 0.5 h | Stability (T1/2 (h)) [13]: 0 h

LKKLRSPL
IC50 (HLA-B08.01 (human)): 0.0006 µM

LPRKPTRAA
Stability (T1/2 (h)) (HLA-B07.02 (human) [14]): 5.5 h | IC50 (HLA-B07.02 (human) [15]): 0.008 µM

MQLMPFGCLL
IC50 [16]: 18.9 µM | IC50 [2]: 0.0163 µM | Stability (half-life (hr.)) [17]: 0 h | Stability (half-life (hr.)) [4]: 22.9 min

YLGNHMNIA
IC50 [18]: 0.117 µM | IC50 [9]: 0.872 µM | Stability (T1/2 (h)) [11]: 0.6 h | Stability (T1/2 (h)) [12]: 0 h

YVMAYVMAG
IC50 [18]: 11.5 µM | IC50 [10]: 0.17 µM | Stability (T1/2 (h)) [11]: 2.5 h | Stability (T1/2 (h)) [12]: 1.2 h | Stability (T1/2 (h)) [13]: 0 h

LTSTVQLIM [EGFR, T790M peptide …]
IC50 [19]: 2.89 µM | Stability (half-life (hr.)) [20]: 6.22 min

MLLRLNLRKM
IC50 (HLA-A03.01 (human)): 0.117 µM | IC50 (HLA-A02.01 (human) [21]): 2.51 µM

MLTDSLFLPI
Stability (T1/2 (h)) (HLA-A01.01 (human) [22]): 0 h | Stability (T1/2 (h)) (HLA-A02.01 (human) [23]): 1 h | IC50 (HLA-A01.01 (human) [24]): 7.67 µM

CLTSTVQLIM […, listing 1 of 2 here]
Stability (T1/2 (h)) (HLA-A01.01 (human) [25]): 0 h | Stability (T1/2 (h)) (HLA-A02.01 (human) [26]): 0 h | IC50 (HLA-A02.01 (human) [27]): 0.716 µM

VQLIMQLMPF
IC50 [16]: 4.1 µM | IC50 [2]: 4.94 µM | Stability (half-life (hr.)) [17]: 0 h | Stability (half-life (hr.)) [4]: 0 min

CLTSTVQLIM [EGFR_T790M peptide …, listing 2 of 2 here]
IC50 [19]: 8.28 µM | IC50 [2]: 0.537 µM | Stability (half-life (hr.)) [20]: 0 min | Stability (half-life (hr.)) [4]: 0 min

IMQLMPFGCL
IC50 [16]: 14.1 µM | IC50 [2]: 0.653 µM | Stability (half-life (hr.)) [17]: 0 h | Stability (half-life (hr.)) [4]: 30.9 min

SQIMSLWGL
IC50 [18]: 0.062 µM | IC50 [28]: 8.52 µM | Stability (T1/2 (h)) [11]: 1 h | Stability (T1/2 (h)) [12]: 0 h | Stability (T1/2 (h)) [29]: 0 h

YVMAYVMAGV
IC50 [18]: 0.057 µM | IC50 [10]: 52.6 µM | Stability (T1/2 (h)) [11]: 20.9 h | Stability (T1/2 (h)) [12]: 0 h | Stability (T1/2 (h)) [13]: 0 h

SLLNYLREM
Stability (half-life (hr.)) [5]: 0 h | Stability (half-life (hr.)) [6]: 183 min | IC50 [30]: 0.866 µM | IC50 [7]: 0.0677 µM

LSLMPAHWSI
IC50 [18]: 0.164 µM | IC50 [28]: 12.4 µM | Stability (T1/2 (h)) [11]: 0.4 h | Stability (T1/2 (h)) [12]: 0 h | Stability (T1/2 (h)) [29]: 0 h

FELLSTPPL
IC50 [18]: 0.225 µM | IC50 [9]: 3.18 µM | Stability (T1/2 (h)) [11]: 0 h | Stability (T1/2 (h)) [12]: 0 h

SLMPAHWSI
IC50 [18]: 0.048 µM | IC50 [28]: 0.633 µM | Stability (T1/2 (h)) [11]: 5 h | Stability (T1/2 (h)) [12]: 0 h | Stability (T1/2 (h)) [29]: 0.4 h | Stability (T1/2 (h)) [13]: 0 h

WMTETLFDIV
Stability (T1/2 (h)) (HLA-A01.01 (human) [22]): 0 h | Stability (T1/2 (h)) (HLA-A02.01 (human) [23]): 0.4 h | IC50 (HLA-A01.01 (human) [24]): 14.4 µM | IC50 (HLA-A02.01 (human) [21]): 0.04 µM
